Laboratory results from patent US20130108650A1 (ACCELERON PHARMA, published 2013).

B3: hActRIIB-hFc (human ActRIIB ECD linked to human IgG1 Fc) (Fc fusion, not shown: a dimerising Fc or GST)
chain: SGRGEAETRECIYYNANWELERTNQSGLERCEGEQDKRLHCYASWRNSSGTIELVKKGCWLDDFNCYDRQECVATEENPQVYFCCCEGNFCNERFTHLPEAGGPEVTYEPPPTAPTLLT

Experiments:
hActRIIB-mFc [1] = target: T1, hActRIIB-mFc (human; mouse, UniProt Q13705 19-137); experiment: SPR (BIACORE), Ab-17G05 on hActRIIB-mFc compared with Fab-17G05 on hActRIIB-hFc
T1 construct: not shown: murine IgG2a Fc (captured by antibody against murine IgG2a Fc)
T1 sequence: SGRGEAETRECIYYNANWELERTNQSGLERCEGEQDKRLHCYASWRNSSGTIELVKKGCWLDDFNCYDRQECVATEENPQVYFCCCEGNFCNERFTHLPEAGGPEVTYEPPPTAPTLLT
Method: (§1) FIG. 2 depicts kinetic characterization of Ab-17G05 binding to hActRIIB-mFc as determined by BIACORE™-based analysis at 25° C. (A) or 37° C. (B). hActRIIB-mFc was captured on a chip with covalently immobilized antibody against murine IgG2a Fc and then exposed to Ab-17G05 at concentrations ranging from 0.0195 μg/ml to 5 μg/ml.
(§2) BIACORE™-based analysis was used to characterize binding of Ab-17G05 to ActRIIB. For this analysis, Ab-17G05 was purified from COS-cell-conditioned media by one-step protein G chromatography.

hActRIIB-mFc [2] = target: T1, hActRIIB-mFc; experiment: SPR (BIACORE), hActRIIB-mFc captured on anti-murine IgG2a Fc chip, antibody in solution, 37 C
Method: FIG. […] (A) or 37° C. (B). hActRIIB-mFc was captured on a chip with covalently immobilized antibody against murine IgG2a Fc and then exposed to Ab-17G05 at concentrations ranging from 0.0195 μg/ml to 5 μg/ml.
as §2

hActRIIB-mFc [3] = target: T1, hActRIIB-mFc; experiment: SPR (BIACORE), hActRIIB-mFc captured on anti-murine IgG2a Fc chip, antibody in solution, 25 C
Method: as §1, §2

[4] = target: B3; experiment: cell-based or functional assay
[5] = target: B3; experiment: SPR (BIACORE), hActRIIB-hFc captured on anti-human IgG1 Fc chip, Fab in solution, 37 C
Method: (§3) FIG. […] (A) or 37° C. (B). hActRIIB-hFc was captured on a chip with covalently immobilized antibody against human IgG1 Fc and then exposed to Fab-17G05 at concentrations ranging from 0.0195 μg/ml to 5 μg/ml. RU, response units.

[6] = target: B3; experiment: SPR (BIACORE), hActRIIB-hFc captured on anti-human IgG1 Fc chip, Fab in solution, 37 C (values of Example 4 reprinted for comparison)
Method: as §3

[7] = target: B3; experiment: SPR (BIACORE), hActRIIB-hFc captured on anti-human IgG1 Fc chip, Fab in solution, 25 C (values of Example 4 reprinted for comparison)
Method: (§4) FIG. 1 depicts kinetic characterization of Fab-17G05 binding to hActRIIB-hFc as determined by BIACORE™-based analysis at 25° C. (A) or 37° C. (B). hActRIIB-hFc was captured on a chip with covalently immobilized antibody against human IgG1 Fc and then exposed to Fab-17G05 at concentrations ranging from 0.0195 μg/ml to 5 μg/ml. RU, response units.

[8] = target: B3; experiment: SPR (BIACORE), hActRIIB-hFc captured on anti-human IgG1 Fc chip, Fab in solution, 25 C (values of Example 4 reprinted for comparison); 25 C; Fab values reprinted for comparison with Ab-17G05
Method: as §4

[9] = target: B3; experiment: SPR (BIACORE) competition: biotinylated ActRIIB-Fc on streptavidin chip, sFab 40 ug/ml then GDF11 500 ng/ml; competitor GDF11
Method: Affinity-purified sFabs were also screened in two SPR-based competition assays at Acceleron. The first assay evaluated the effect of sFab pretreatment on binding of GDF11 to immobilized ActRIIB-Fc. […] This signal was compared with a second signal (residual GDF11 binding) resulting from GDF11 binding to immobilized ActRIIB-Fc that had first been exposed to sFab (40 μg/ml).

[10] = target: B3; experiment: SPR (BIACORE), hActRIIB-hFc captured on anti-human IgG1 Fc chip, Fab in solution, 25 C
Method: as §4

[11] = target: B3; experiment: SPR (BIACORE), hActRIIB-hFc captured on anti-human IgG1 Fc chip, Fab in solution, 37 C; 37 C
Method: as §3

activin A = target: T2, activin A (UniProt P08476 311-426); experiment: cell-based or functional assay
T2 sequence (looked up): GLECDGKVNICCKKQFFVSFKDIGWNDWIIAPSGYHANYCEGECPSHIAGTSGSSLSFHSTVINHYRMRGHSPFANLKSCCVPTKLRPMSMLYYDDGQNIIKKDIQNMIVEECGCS

[12] = target: B3; experiment: SPR (BIACORE), human ActRIIB-hFc, Fab in solution, 25 C
[13] = target: B3; experiment: SPR (BIACORE), human ActRIIB-hFc, Fab in solution, 37 C
[14] = target: B3; experiment: SPR (BIACORE), human ActRIIB-hFc, Fab in solution, 25 C; 25 C

B1: Ab-17G05 (antibody, V domains shown)
VH: EVQLLESGGGLVQPGGSLRLSCAASGFTFSNYWMGWVRQAPGKGLEWVSYIRSSGGLTHYADSVKGRFTISRDNSKNTLYLQMNSLRAEDTATYYCAKGLYSFDYWGQGTLVTVSS
VL: DIQMTQSPSSLSASVGDRVTITCRASQGVNNFLAWYQQKPGKAPRLLIYAASTLQSGVPSRFSGSGSGTDFTLSISNLQPEDFATYYCQQSYSTPRGFGQGTKVEIK
notes: also called antibody 17G05; Ab-R17G05
fold improvement in off-rate and KD against Fab-17G05 (hActRIIB-mFc [1]): ≥ 20 fold
Kd (hActRIIB-mFc [2]): 0.092 nM
koff (hActRIIB-mFc [2]): 0.00014 s⁻¹
kon (hActRIIB-mFc [2]): 1.5e+06 M⁻¹ s⁻¹
Kd (hActRIIB-mFc [3]): 0.028 nM
koff (hActRIIB-mFc [3]): 2.7e-05 s⁻¹
kon (hActRIIB-mFc [3]): 970000 M⁻¹ s⁻¹
IC50 of neutralization, A204 cell-based reporter gene assay (activin A 5 ng/ml plus ActRIIB-Fc 50 ng/ml) [4]: ~0.04 nM

B2: Fab-17G05 (Fab, V domains shown)
VH: EVQLLESGGGLVQPGGSLRLSCAASGFTFSNYWMGWVRQAPGKGLEWVSYIRSSGGLTHYADSVKGRFTISRDNSKNTLYLQMNSLRAEDTATYYCAKGLYSFDYWGQGTLVTVSS
VL: DIQMTQSPSSLSASVGDRVTITCRASQGVNNFLAWYQQKPGKAPRLLIYAASTLQSGVPSRFSGSGSGTDFTLSISNLQPEDFATYYCQQSYSTPRGFGQGTKVEIK
notes: the Fab constant domains are not; also called sFab 17G05; Fab-R17G05
koff [5]: 0.0031 s⁻¹
kon [5]: 2.6e+06 M⁻¹ s⁻¹
Kd [6]: 1.9 nM
koff [6]: 0.0031 s⁻¹
kon [6]: 2.6e+06 M⁻¹ s⁻¹
Kd [7]: 0.55 nM
koff [7]: 0.00087 s⁻¹
kon [8]: 1.6e+06 M⁻¹ s⁻¹
IC50 of neutralization, A204 cell-based reporter gene assay (activin A 5 ng/ml plus ActRIIB-Fc 50 ng/ml) [4]: ~2.6 nM
residual GDF11 binding [9]: < 50 % of Emax
Kd [10]: 0.55 nM
koff [10]: 0.00087 s⁻¹
kon [10]: 1.6e+06 M⁻¹ s⁻¹
Kd [11]: 1.9 nM

B3
IC50 of inhibition of activin A signaling, A204 reporter gene assay (activin A 5 ng/ml) (activin A): 0.05 µg/mL

B4: Fab-17G01 (Fab, V domains shown)
VH: EVQLLESGGGLVQPGGSLRLSCAASGFTFSNYQMDWVRQAPGKGLEWVSYIGPSGGRTKYADSVKGRFTISRDNSKNTLYLQMNSLRAEDTATYYCARGLYSFDYWGQGTLVTVSS
VL: DIQMTQSPSSLSASVGDRVTITCRAGQSISNFLNWYQHTPGTGPKVLIYAASSLQSGVPSRFSGSGSGTEFTLTITNLQPEDFATYYCQQSYSTPFTFGPGTKVDIK
notes: Soluble Fab from Dyax's Fab310 library; the Fab constant domains are not; also called sFab 17G01
Kd [12]: 3.8 nM
koff [12]: 0.0018 s⁻¹
kon [12]: 460000 M⁻¹ s⁻¹
residual GDF11 binding [9]: < 50 % of Emax
Kd [13]: 21 nM
koff [13]: 0.012 s⁻¹
kon [13]: 580000 M⁻¹ s⁻¹

B5: Fab-17A11 (Fab, V domains shown)
VH: EVQLLESGGGLVQPGGSLRLSCAASGFTFSTYAMMWVRQAPGKGLEWVSRIYPSGGTTTYADSVKGRFTISRDNSKNTLYLQMNSLRAEDTAVYYCARGSAASSYWGQGTLVTVSS
VL: DIQMTQSPSFLSASVGDRVTITCRASQGISNYLAWYQQKPGKAPKLLIYAASTLQSGVPSRFSGSGSGTEFTLTISSLQPEDIGTYYCQQLISYPFTFGPGTKVDIK
notes: Soluble Fab from Dyax's Fab310 library; the Fab constant domains are not; also called sFab 17A11
Kd [14]: 1.6 nM
koff [12]: 0.00019 s⁻¹
kon [12]: 1.2e+06 M⁻¹ s⁻¹
residual GDF11 binding [9]: < 50 % of Emax
Kd [13]: 9.9 nM
koff [13]: 0.014 s⁻¹
kon [13]: 1.4e+06 M⁻¹ s⁻¹

B6: Fab-17C09 (Fab, V domains shown)
VH: EVQLLESGGGLVQPGGSLRLSCAASGFTFSQYNMTWVRQAPGKGLEWVSSIYSSGGVTPYADSVKGRFTISRDNSKNTLYLQMNSLRAEDTAVYYCARGRLLFDYWGQGTLVTVSS
VL: DIQMTQSPSSLSASVGDRVTITCRASQSISNYLNWYQQRPGKPPKLLIYAASSLQSGVPSRFSGSGSGTDFSLSISILQPEDFATYYCQQGYTAPRSFGQGTKVEIK
notes: Soluble Fab from Dyax's Fab310 library; the Fab constant domains are not; also called sFab 17C09
residual GDF11 binding [9]: < 50 % of Emax
